# The supplement of paper PMC9876800
# Tested on: peptide library, one residue held at a place counted from the S/T acceptor
# Experiment: relative phosphorylation of the sub-library (ratio to the mean residue at this position); human; higher = residue favoured
# Conditions: P fixed; at -4
# Outline: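 In 384-well plates, purified recombinant kinases (human or orthologue constructs) were incubated for 90 min under kinase-specific conditions with 50 μM biotinylated degenerate peptide sub-libraries and 50 μM ATP spiked with γ-32P-ATP. Each sub-library fixed a single residue at one position around a central Ser/Thr. Relative sub-library phosphorylation, measured by phosphorimaging and densitometry of streptavidin membrane spots, is given as a ratio to the mean residue at that position.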
# Chain of IKBKE, construct: Full length (Q14164 whole entry, looked up): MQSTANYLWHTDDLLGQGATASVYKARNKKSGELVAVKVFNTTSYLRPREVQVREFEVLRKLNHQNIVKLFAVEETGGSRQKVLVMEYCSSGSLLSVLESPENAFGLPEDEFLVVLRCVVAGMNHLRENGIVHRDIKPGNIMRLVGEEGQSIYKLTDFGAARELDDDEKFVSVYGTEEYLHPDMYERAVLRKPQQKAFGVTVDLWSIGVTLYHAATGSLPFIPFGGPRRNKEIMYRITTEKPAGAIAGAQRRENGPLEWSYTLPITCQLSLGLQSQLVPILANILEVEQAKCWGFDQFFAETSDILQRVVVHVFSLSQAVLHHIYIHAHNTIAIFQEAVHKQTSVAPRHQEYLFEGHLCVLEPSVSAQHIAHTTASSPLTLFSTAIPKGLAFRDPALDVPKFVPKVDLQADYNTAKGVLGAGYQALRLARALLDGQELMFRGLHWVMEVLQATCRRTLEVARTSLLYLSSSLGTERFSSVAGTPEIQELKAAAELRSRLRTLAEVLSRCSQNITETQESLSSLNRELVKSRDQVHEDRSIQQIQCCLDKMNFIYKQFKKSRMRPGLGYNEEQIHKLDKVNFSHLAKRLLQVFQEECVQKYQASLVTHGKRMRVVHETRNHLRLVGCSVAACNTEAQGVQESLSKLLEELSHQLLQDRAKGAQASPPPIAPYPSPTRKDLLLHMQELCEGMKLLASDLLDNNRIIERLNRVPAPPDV
# Chain of MAP4K5, construct: Full length (Q9Y4K4 whole entry, looked up): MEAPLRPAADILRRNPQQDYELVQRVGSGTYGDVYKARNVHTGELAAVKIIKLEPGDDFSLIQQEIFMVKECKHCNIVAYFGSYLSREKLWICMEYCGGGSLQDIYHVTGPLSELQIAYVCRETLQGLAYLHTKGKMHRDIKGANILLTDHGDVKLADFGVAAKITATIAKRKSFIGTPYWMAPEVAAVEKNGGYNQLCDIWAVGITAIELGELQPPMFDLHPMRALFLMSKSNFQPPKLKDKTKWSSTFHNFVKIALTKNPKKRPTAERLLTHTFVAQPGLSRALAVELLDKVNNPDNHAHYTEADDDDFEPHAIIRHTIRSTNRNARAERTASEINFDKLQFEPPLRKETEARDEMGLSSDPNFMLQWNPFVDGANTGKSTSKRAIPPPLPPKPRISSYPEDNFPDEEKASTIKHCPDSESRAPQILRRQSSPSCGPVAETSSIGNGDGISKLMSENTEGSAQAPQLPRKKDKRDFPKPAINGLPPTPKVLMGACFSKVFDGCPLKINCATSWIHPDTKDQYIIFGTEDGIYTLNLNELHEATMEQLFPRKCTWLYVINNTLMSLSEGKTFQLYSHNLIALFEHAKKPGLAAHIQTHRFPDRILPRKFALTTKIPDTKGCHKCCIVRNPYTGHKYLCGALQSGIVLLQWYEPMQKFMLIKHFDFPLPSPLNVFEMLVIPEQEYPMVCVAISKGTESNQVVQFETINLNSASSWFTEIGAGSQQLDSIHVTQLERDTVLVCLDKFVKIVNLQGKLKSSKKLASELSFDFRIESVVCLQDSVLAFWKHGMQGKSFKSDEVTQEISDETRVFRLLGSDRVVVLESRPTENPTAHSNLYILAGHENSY
# Chain of SLK, construct: Full length (Q9H2G2 whole entry, looked up): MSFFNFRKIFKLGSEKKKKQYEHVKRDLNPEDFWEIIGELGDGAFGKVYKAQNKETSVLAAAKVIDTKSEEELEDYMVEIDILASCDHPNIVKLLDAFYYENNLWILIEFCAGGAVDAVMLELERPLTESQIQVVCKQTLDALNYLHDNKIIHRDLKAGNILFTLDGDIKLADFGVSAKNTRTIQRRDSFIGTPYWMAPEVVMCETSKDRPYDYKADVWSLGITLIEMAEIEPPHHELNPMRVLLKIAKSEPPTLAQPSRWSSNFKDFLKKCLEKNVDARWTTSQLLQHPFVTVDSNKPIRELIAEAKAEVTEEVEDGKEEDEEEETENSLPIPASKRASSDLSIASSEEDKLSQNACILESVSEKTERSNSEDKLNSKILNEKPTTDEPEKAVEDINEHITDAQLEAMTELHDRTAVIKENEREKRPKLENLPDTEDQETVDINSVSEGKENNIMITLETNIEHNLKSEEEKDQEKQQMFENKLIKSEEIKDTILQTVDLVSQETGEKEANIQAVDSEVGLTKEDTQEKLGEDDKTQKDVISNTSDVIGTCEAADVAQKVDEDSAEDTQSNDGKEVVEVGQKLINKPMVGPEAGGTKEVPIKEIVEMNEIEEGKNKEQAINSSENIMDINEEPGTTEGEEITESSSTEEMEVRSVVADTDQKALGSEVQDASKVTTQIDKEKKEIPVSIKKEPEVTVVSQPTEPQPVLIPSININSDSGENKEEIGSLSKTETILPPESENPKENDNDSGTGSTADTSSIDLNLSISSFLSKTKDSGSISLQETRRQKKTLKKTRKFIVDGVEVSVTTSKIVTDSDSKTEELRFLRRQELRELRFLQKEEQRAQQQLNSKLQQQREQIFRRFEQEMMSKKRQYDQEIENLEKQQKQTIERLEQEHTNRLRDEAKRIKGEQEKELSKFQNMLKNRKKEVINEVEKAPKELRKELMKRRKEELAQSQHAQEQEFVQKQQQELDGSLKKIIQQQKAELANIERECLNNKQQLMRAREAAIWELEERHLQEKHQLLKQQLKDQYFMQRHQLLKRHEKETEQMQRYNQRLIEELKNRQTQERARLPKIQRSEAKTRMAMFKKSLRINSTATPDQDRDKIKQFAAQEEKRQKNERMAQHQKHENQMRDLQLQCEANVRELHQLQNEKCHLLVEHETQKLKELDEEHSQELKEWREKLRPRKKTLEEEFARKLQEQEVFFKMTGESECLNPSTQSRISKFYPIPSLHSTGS
# Chain of TNIK, construct: aa1-314 (Q9UKE5 1-314, looked up): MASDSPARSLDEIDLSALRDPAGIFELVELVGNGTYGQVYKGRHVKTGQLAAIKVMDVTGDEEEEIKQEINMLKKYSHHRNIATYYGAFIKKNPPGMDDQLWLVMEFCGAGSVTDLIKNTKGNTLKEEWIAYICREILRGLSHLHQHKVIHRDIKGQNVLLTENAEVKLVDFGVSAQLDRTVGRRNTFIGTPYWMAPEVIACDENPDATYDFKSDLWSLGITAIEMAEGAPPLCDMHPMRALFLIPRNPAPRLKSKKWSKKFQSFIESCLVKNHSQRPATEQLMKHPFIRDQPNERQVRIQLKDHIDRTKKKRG
# Chain of SIK3, construct: aa1-307 (Q9Y2K2 1-307, looked up): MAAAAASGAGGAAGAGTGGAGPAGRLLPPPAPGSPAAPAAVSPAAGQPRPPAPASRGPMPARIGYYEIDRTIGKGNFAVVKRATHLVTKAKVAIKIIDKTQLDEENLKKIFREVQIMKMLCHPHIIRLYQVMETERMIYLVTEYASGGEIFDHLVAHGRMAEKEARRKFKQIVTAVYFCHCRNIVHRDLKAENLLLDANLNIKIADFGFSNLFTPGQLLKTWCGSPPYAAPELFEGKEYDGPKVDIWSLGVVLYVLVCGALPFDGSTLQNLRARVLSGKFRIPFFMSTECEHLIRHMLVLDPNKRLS
# Chain of NEK6, construct: Full length (Q9HC98 whole entry, looked up): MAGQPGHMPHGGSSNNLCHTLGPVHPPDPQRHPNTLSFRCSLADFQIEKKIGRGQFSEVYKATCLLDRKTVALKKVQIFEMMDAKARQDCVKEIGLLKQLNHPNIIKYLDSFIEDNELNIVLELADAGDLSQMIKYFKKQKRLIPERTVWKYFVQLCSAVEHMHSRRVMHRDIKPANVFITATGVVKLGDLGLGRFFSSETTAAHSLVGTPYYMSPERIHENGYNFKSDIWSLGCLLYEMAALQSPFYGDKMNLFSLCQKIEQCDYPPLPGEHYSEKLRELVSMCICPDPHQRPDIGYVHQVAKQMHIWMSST
# Chain of CDK10, construct: Full length (Q15131 whole entry, looked up): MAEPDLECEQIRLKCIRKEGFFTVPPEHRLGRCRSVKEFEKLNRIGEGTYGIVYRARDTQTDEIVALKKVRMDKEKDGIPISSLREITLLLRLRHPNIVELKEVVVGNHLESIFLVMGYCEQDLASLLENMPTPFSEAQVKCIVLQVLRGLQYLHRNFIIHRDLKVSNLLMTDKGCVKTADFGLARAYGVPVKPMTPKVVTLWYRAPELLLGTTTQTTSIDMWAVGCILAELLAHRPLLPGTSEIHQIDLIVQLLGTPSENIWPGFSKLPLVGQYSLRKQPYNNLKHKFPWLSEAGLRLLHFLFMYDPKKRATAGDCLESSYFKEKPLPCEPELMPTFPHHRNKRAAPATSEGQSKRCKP
row,Substance,relative phosphorylation
1,"CDK10, construct: Full length (from UniProt Q15131)",1.08

# Same assay, conditions: P fixed; at -5
row,Substance,relative phosphorylation
1,"PKN2, construct: aa501-984 (from UniProt Q16513)",0.99
2,"IKBKE, construct: Full length (from UniProt Q14164)",0.959
3,"MAP4K5, construct: Full length (from UniProt Q9Y4K4)",1.37
4,"NEK6, construct: Full length (from UniProt Q9HC98)",1.09
5,"SIK3, construct: aa1-307 (from UniProt Q9Y2K2)",0.954
6,"TNIK, construct: aa1-314 (from UniProt Q9UKE5)",1.41
7,"SLK, construct: Full length (from UniProt Q9H2G2)",0.872
8,"CDK10, construct: Full length (from UniProt Q15131)",0.97

# Same assay, conditions: Q fixed; at +1
row,Substance,relative phosphorylation
1,"PKN2, construct: aa501-984 (from UniProt Q16513)",0.82
2,"IKBKE, construct: Full length (from UniProt Q14164)",0.292
3,"MAP4K5, construct: Full length (from UniProt Q9Y4K4)",0.558
4,"NEK6, construct: Full length (from UniProt Q9HC98)",1.68
5,"SIK3, construct: aa1-307 (from UniProt Q9Y2K2)",1.84
6,"TNIK, construct: aa1-314 (from UniProt Q9UKE5)",0.782
7,"SLK, construct: Full length (from UniProt Q9H2G2)",0.818
8,"CDK10, construct: Full length (from UniProt Q15131)",0.294

# Same assay, conditions: Q fixed; at +2
row,Substance,relative phosphorylation
1,"PKN2, construct: aa501-984 (from UniProt Q16513)",0.758
2,"IKBKE, construct: Full length (from UniProt Q14164)",1.07
3,"MAP4K5, construct: Full length (from UniProt Q9Y4K4)",1.12
4,"NEK6, construct: Full length (from UniProt Q9HC98)",0.722
5,"SIK3, construct: aa1-307 (from UniProt Q9Y2K2)",0.988
6,"TNIK, construct: aa1-314 (from UniProt Q9UKE5)",1.04
7,"SLK, construct: Full length (from UniProt Q9H2G2)",1.04
8,"CDK10, construct: Full length (from UniProt Q15131)",0.967

# Same assay, conditions: Q fixed; at +3
row,Substance,relative phosphorylation
1,"PKN2, construct: aa501-984 (from UniProt Q16513)",0.998
2,"IKBKE, construct: Full length (from UniProt Q14164)",0.835
3,"MAP4K5, construct: Full length (from UniProt Q9Y4K4)",0.907
4,"NEK6, construct: Full length (from UniProt Q9HC98)",1.02
5,"SIK3, construct: aa1-307 (from UniProt Q9Y2K2)",0.853
6,"TNIK, construct: aa1-314 (from UniProt Q9UKE5)",0.886
7,"SLK, construct: Full length (from UniProt Q9H2G2)",0.918
8,"CDK10, construct: Full length (from UniProt Q15131)",0.874

# Same assay, conditions: Q fixed; at +4
row,Substance,relative phosphorylation
1,"PKN2, construct: aa501-984 (from UniProt Q16513)",0.998
2,"IKBKE, construct: Full length (from UniProt Q14164)",0.839
3,"MAP4K5, construct: Full length (from UniProt Q9Y4K4)",1.1
4,"NEK6, construct: Full length (from UniProt Q9HC98)",1.07
5,"SIK3, construct: aa1-307 (from UniProt Q9Y2K2)",0.481
6,"TNIK, construct: aa1-314 (from UniProt Q9UKE5)",1.04
7,"SLK, construct: Full length (from UniProt Q9H2G2)",1.22
8,"CDK10, construct: Full length (from UniProt Q15131)",1.24

# Same assay, conditions: Q fixed; at -1
row,Substance,relative phosphorylation
1,"PKN2, construct: aa501-984 (from UniProt Q16513)",1.04
2,"IKBKE, construct: Full length (from UniProt Q14164)",0.89
3,"MAP4K5, construct: Full length (from UniProt Q9Y4K4)",1.01
4,"NEK6, construct: Full length (from UniProt Q9HC98)",1.56
5,"SIK3, construct: aa1-307 (from UniProt Q9Y2K2)",1.29
6,"TNIK, construct: aa1-314 (from UniProt Q9UKE5)",0.859
7,"SLK, construct: Full length (from UniProt Q9H2G2)",1.27
8,"CDK10, construct: Full length (from UniProt Q15131)",0.859

# Same assay, conditions: Q fixed; at -2
row,Substance,relative phosphorylation
1,"PKN2, construct: aa501-984 (from UniProt Q16513)",1.11
2,"IKBKE, construct: Full length (from UniProt Q14164)",0.796
3,"MAP4K5, construct: Full length (from UniProt Q9Y4K4)",0.806
4,"NEK6, construct: Full length (from UniProt Q9HC98)",0.728
5,"SIK3, construct: aa1-307 (from UniProt Q9Y2K2)",0.526
6,"TNIK, construct: aa1-314 (from UniProt Q9UKE5)",0.987
7,"SLK, construct: Full length (from UniProt Q9H2G2)",0.604
8,"CDK10, construct: Full length (from UniProt Q15131)",0.958

# Same assay, conditions: Q fixed; at -3
row,Substance,relative phosphorylation
1,"PKN2, construct: aa501-984 (from UniProt Q16513)",0.898
2,"IKBKE, construct: Full length (from UniProt Q14164)",1.05
3,"MAP4K5, construct: Full length (from UniProt Q9Y4K4)",1.1
4,"NEK6, construct: Full length (from UniProt Q9HC98)",0.62
5,"SIK3, construct: aa1-307 (from UniProt Q9Y2K2)",0.704
6,"TNIK, construct: aa1-314 (from UniProt Q9UKE5)",0.896
7,"SLK, construct: Full length (from UniProt Q9H2G2)",1.01
8,"CDK10, construct: Full length (from UniProt Q15131)",0.874

# Same assay, conditions: Q fixed; at -4
row,Substance,relative phosphorylation
1,"PKN2, construct: aa501-984 (from UniProt Q16513)",1.09
2,"IKBKE, construct: Full length (from UniProt Q14164)",0.942
3,"MAP4K5, construct: Full length (from UniProt Q9Y4K4)",0.96
4,"NEK6, construct: Full length (from UniProt Q9HC98)",0.894
5,"SIK3, construct: aa1-307 (from UniProt Q9Y2K2)",0.8
6,"TNIK, construct: aa1-314 (from UniProt Q9UKE5)",0.964
7,"SLK, construct: Full length (from UniProt Q9H2G2)",0.918
8,"CDK10, construct: Full length (from UniProt Q15131)",0.973

# Same assay, conditions: Q fixed; at -5
row,Substance,relative phosphorylation
1,"PKN2, construct: aa501-984 (from UniProt Q16513)",0.89
2,"IKBKE, construct: Full length (from UniProt Q14164)",0.827
3,"MAP4K5, construct: Full length (from UniProt Q9Y4K4)",0.877
4,"NEK6, construct: Full length (from UniProt Q9HC98)",0.819
5,"SIK3, construct: aa1-307 (from UniProt Q9Y2K2)",0.725
6,"TNIK, construct: aa1-314 (from UniProt Q9UKE5)",0.912
7,"SLK, construct: Full length (from UniProt Q9H2G2)",0.744
8,"CDK10, construct: Full length (from UniProt Q15131)",0.911

# Same assay, conditions: R fixed; at +1
row,Substance,relative phosphorylation
1,"PKN2, construct: aa501-984 (from UniProt Q16513)",1.44
2,"IKBKE, construct: Full length (from UniProt Q14164)",0.248
3,"MAP4K5, construct: Full length (from UniProt Q9Y4K4)",0.697
4,"NEK6, construct: Full length (from UniProt Q9HC98)",0.986
